Article PMC9528458

Molecular target: Fzd of the reconstituted xWnt8-Fzd complexes (Fzd4 and FZD5) in nanodiscs

B1: Xenopus laevis Wnt8 (ligand)
chain: AWSVNNFLMTGPKAYLTYSASVAVGAQNGIEECKYQFAWERWNCPESTLQLATHNGLRSATRETSFVHAISSAGVMYTLTRNCSMGDFDNCGCDDSRNGRIGGRGWVWGGCSDNAEFGERISKLFVDGLETGQDARALMNLHNNEAGRLAVKETMKRTCKCHGISGSCSIQTCWLQLAEFRDIGNHLKIKHDQALKLEMDKRKMRSGNSADNRGAIADAFSSVAGSELIFLEDSPDYCLKNISLGLQGTEGRECLQSGKNLSQWERRSCKRLCTDCGLRVEEKKTEIISSCNCKFHWCCTVKCEQCKQVVIKHFCARRERDSNMLNTKRKNRGHRR
  occupancy (percent Wnt-bound Fzd after reconstitution): 30 to 40%
